# Results as given in the DeepSol protein solubility set.
# Test: soluble on expression in E. coli; label from the status in PepcDB or PDB records
row,Sequence,soluble on expression in E. coli
1,MAHHHHHHMWRQLMCSYSSKEKLGSKIYTQKKITKREKLLGIVKPFVDENCDSAEPYVIAYYLNNPINLATLKSAYEKVGSQVLYKDPYLYVESCSHFNQQNSSAVFFKNGCMVIWSMNKQNRNKFFHFSKQFLHINSESTIDHYDFEELQVENISNKSYVNNSVIYLTSSNYRTTDKIAISFGLLSAVRLNNLEKKIEKKLFYENDQIENLKKKMKSSNLDHLSKQLFTSKITLHNLRYELNIDQDILDVPEALWELEYQKKLFLNILHIFDIKQRVDLLNHRLSWTLDYLNSFLDYVNQKHSSRLERIIIVIVGLELVLGIMQMGNTIGL,not soluble
2,MAHHHHHHMYLYHSNKCAIKKGIPFFRNVASICFLRKAQNGEEVKRRKVFCSAKFISTISEGRETGCGQANTDQPSTPLGSYTEKSSYKDIKIVENEKEGNDAAEEINQNDIIAVDFEGTNLGKYGKVCIMQVYTEERTREGTPPQSECISREKYYIFDLLKMSVIKSVKKIIENKKTLKLVHDCREDSSALYNQLGIKFENVYDTSRAHMLLMEKNKSNDIYQVSFLQLLNDYLGIKDECLSSIKKEMYKNEKIWQVRPLSKMSIIYALKNVKYLFPLYRIFDNMLPKKIVLEKSKDFVNYCLINSRYKLPVDLAKRGNIVQAMLVSKSMLNCVFKLNSTRKGIACTPSSVAQFRDVKVGDVVLCVVSNKSIDQKILYLCKHDDVFDYWNLKERPRGKFKPSIHESATDPMIQFCDEEQPA,not soluble
3,MAHHHHHHSLNVLKDKLSGKNVKIVLPEGEDERVLTAATQLQATDYVTPIVLGDETKVQSLAQKLDLDISNIELINPATSELKAELVQSFVERRKGKATEEQAQELLNNVNYFGTMLVYAGKADGLVSGAAHSTGDTVRPALQIIKTKPGVSRTSGIFFMIKGDEQYIFGDCAINPELDSQGLAEIAVESAKSALSFGMDPKVAMLSFSTKGSAKSDDVTKVQEAVKLAQQKAEEEKLEAIIDGEFQFDAAIVPGVAEKKAPGAKLQGDANVFVFPSLEAGNIGYKIAQRLGGYDAVGPVLQGLNSPVNDLSRGCSIEDVYNLSIITAAQALQEG,soluble
4,MAHHHHHHSLRLTPLPQPKRIHYMVKVGDTLSGIFAQLGVPYSILQKILSVDLDHLQLDMIQPGEELELMMDDMGQLSRLIYHMSIVEKAIYTRENDGSFSYDFQEISGEWREILFSGEINGSFSVSARRVGLTSSQVANITQVMKDKIDFSRSLRAGDRFDILVKQQYLGEHNTGNSEIKAISFKLAKGDVSAFLAEDGRFYDRAGNSLERAFNRYPVDKAYRQITSGFNPKRKHPVTGRVVPHNGTDFATPIGAPVYSTGDGKVIVVRKHPYAGNYLVIEHNSVYKTRYLHLDKILVKKGQLVKRGQKIALAGATGRLTGPHLHFEVLVRNRPVDAMKADLPIAKSLSSNQKTSFLARVSEFDHLVQANQQEVALDEG,soluble
5,MAHHHHHHSLTTSHILGFPRVGAKRELKFAQERYWRKELAEQDLLDLAKALREKNWKHQAAANADFVAVGDFTFYDHILDLQVATGAIPARFGFDSQNLTLDQYFQLARGNKDQFAIEMTKWFDTNYHYLVPEFQKSTAFKANPAHYVNQIREAKALGLNFKPVIVGPLTFLWLGKEKGEAFNRFDLLNQLVPVYVEILNALVAEGAEWIQIDEPALALDLPAEWVEAYKSVYTELSKVNAKLLLATYFGSVAEHAELLKALPVAGLHLDLVRAPEQLAAFEDYSKVLSAGVIEGRNIWRANLNKVLDVLEPLKAKLGERLWIAPSCSLLHTPFDLEVEVQLKEKNTALYSWLSFTLQKVEELNVLKQALNNGRASVQAALDASQVAADARATSKEIHRPEVAERLANLPKGADQRKSPFAERIVKQNAWLNLPLLPTTNIGSFPQTTEIRHARASFKKGELSLADYEAAMKKEIEYVVRRQEELDLDVLVHGEAERNDMVEYFGELLDGFAFTKFGWVQSYGSRCVKPPVIYGDVTRPEPMTVRWSQYAQSLTNRVMKGMLTGPVTILQWSFVRNDIPRSTVCKQIGVALSDEVLDLEAAGIKVIQIDEPAIREGLPLKRADWDAYLQWAGEAFRLSSMGVQDDTQIHTHMCYSEFNDILPAIAALDADVITIETSRSDMELLTAFADFKYPNDIGPGVYDIHSPRVPTATEVEHLLRKALNVIPKERLWVNPDCGLKTRGWTETIDQLKVMVDVTKKLRAELAEG,soluble
6,MAHVAEWKKKEVEELAKLIKSYPVIALVDVSSMPAYPLSQMRRLIRENGGLLRVSRNTLIELAIKKAAKELGKPELEKLVEYIDRGAGILVTNMNPFKLYKFLQQNRQPAPAKPGAVVPKDVVVPAGPTPLAPGPIVGQMQALGIPARIEKGKVTIQKDTTVLKAGEVITPELANILNALGIQPLEVGLDVLAVYEDGIVYTPDVLAIDEQEYIDMLQKAYMHAFNLAVNIAYPTPETIEAIIQKAFLNAKTVAIEAGYITKETIQDIIGRAFRAMLLLAQQLP,soluble
7,MAIISSLANHLLIAMPSLKDPNFERSVVYLCEHNEQGSVGLIINRPLQFPLSIVFEQLQIEPIRVEKNGLPLLFGGPVQPERGFVIHKQMGGWRSSLFLQDEVTVTTSNDIIRAIAYDEGPKDVLITLGYAAWTEQQLEREIMSNTWLVCPYKSEILYEVPFEERWEYAGLTLGIKMNQLSSDAGHALEHHHHHH,not soluble
8,MAIKLKSPWEIERMREAGALLTEVVEEVARHVEPGVSTWELDQIAYEAIRKRKAKPAFLGLYGFPATLCTSVNEVVVHGIPSKEPLKEGDILSVDVGLIYQGFAADMARTFPVGRVSPEAERLIRDTEAAFWEGMKYLRPGFRLGDVGHAIQTFLESRGYGVVREFVGHGVGREIHEDPQVPNFGKPGTGPKIRPGMTLALEPMVTLRPAPVVILDDGWAASAGRGNLAAHYENTVLVTEEGPELLTGVALARAE,soluble
9,MAILLNRPTLSRLPWFPLRPEDFTTLLQTADFRLRLLEAIAAATRRVYICALYLENEEAGQEMLDALYRAKQRNPQLDVRVMVDWHRAQRGRIGEDQSHCNASWYREEAARRELDIPIYGVPVQTRELFGVLHLKGFVIDDTVFYSGASLNNVYLHKLDKYRFDRYHLIRSPELADAMAGFMAEQFFNDPAVFRLDKPTPSTRSIRKEIRQLRDKLSHSQYRPGSAHAAPDELAISPIVGIGKGNRLNRAILDVIAGAQRRLFICTPYFNFPRAVVLEINRALRRGVEIDIVVGDKTANDFYIPPEQPFRVIGALPYLYEMNLRRFAKRQRQYLSREQLRVRLWKDGDNTYHLKGIWSDDRFILLTGNNLNPRAFRLDLENALLLRDPQGALRGQSAAEQQSILRHTTQLSHYRQLEDVRAYPEQIKKLLTRLSRVRIDRMLNLMLLEHHHHHH,soluble
10,MAINLELPRKLQAIIVKTHQGAAEMMRPIARKYDLKEHAYPVELDTLINLFEGAAESFNFAGAHSLRDEDEGKDENHNGANMAAVVQTMEASWGDVAMMLSLPYQGLGNAAISAVATDEQLERLGKVWAAMAITEPEFGSDSAAVSTTATLDGDEYVINGEKIFVTAGSRATHIVVWATLDKSLGRPAIKSFIVPREHPGVTVERLEHKLGIKGSDTAVIRFDNARIPKGNLLGNPEIEVGKGFAGVMETFDNTRPIVAAMAVGIGRAALEEIRSVLTGAGVEISYDKPSHTQSAAAAEFLRMEADWEASYLLSLRAAWQADNNIPNSKEASMSKAKAGRMASDVTCKTVELAGTTGYSEQSLLEKWARDSKILDIFEGTQQIQQLVVARRLLGLSSSELK,not soluble
11,MAIPKLQAYALPESHDIPQNKVDWAFEPQRAALLIHDMQDYFVSFWGENCPMMEQVIANIAALRDYCKQHNIPVYYTAQPKEQSDEDRALLNDMWGPGLTRSPEQQKVVDRLTPDADDTVLVKWRYSAFHRSPLEQMLKESGRNQLIITGVYAHIGCMTTATDAFMRDIKPFMVADALADFSRDEHLMSLKYVAGRSGRVVMTEELLPAPIPASKAALREVILPLLDESDEPFDDDNLIDYGLDSVRMMALAARWRKVHGDIDFVMLAKNPTIDAWWKLLSREVK,not soluble
12,MAISDWPEAERPREKLIEKGAAALSDAELLAIFLRTGITGVSAVELARKLLTHFGSLTKLCAASLHEFSELPGMGPAKFAQLQAVMEMAKRALAEELKNGDIMDSPQSVRNYLCLSLKGKPYEVFVGIFLDARHRTIVTEELFNGTLTQASVYPREVVKRALYHNAAAMIFAHNHPSGIAEPSTADEILTQSLKQALALVDVKVLDHFVIGSSEVVSFAERGLI,not soluble
